B1: KCNG1 (parent)
chain: AVNLSVSTLPSLREEEEQVRAHAP
B2: KCTD10 (parent)
chain: SSKEEQKLIATSNKPAVKLLYNRS

Variants of: B1
Experiment: protein stability index of a GFP-peptide fusion (GPS, HEK-293T) (PSI 1-6); higher = more stable
Conditions: c terminus: a fixed tail appended
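Further: lentivirally expressed fusions sorted by FACS into six bins by GFP to DsRed ratio, PSI derived from sequencing read proportions per bin multiplied by bin number.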

Protein stability index: each site, then its substitutions
Q18: I 4.82 | K 4.75 | L 5 | M 4.77 | N 4.95 | P 5.04 | R 4.55 | S 5.26 | T 4.99 | V 4.55 | W 4.05 | Y 4.42
V19: A 4.98 | C 4.84 | D 5.33 | E 5.3 | F 4.62 | G 5.21 | H 5.08 | I 5.15 | K 5.07 | L 5.14 | M 4.85 | N 5.09 | P 5.36 | Q 5.24 | R 4.73 | S 5.33 | T 4.9 | W 4.46 | Y 4.71
R20: A 5.56 | C 4.79 | D 5.96 | E 5.63 | F 4.48 | G 5.48 | H 5.06 | I 5.14 | K 5.17 | L 5.37 | M 5.2 | N 5.3 | P 5.17 | Q 5.12 | S 4.75 | T 5.27 | V 4.94 | W 4.55 | Y 4.75
A21: C 4.74 | D 5.32 | E 4.52 | F 3.75 | G 5.13 | H 4.68 | I 4.11 | K 4.64 | L 4.71 | M 4.27 | N 4.28 | P 4.97 | Q 5.25 | R 4.99 | S 4.96 | T 4.54 | V 4.36 | W 3.35 | Y 3.93
H22: A 5.11 | C 4.92 | D 5.01 | E 5.62 | F 4.49 | G 5.29 | I 4.45 | K 5.49 | L 4.83 | M 5.28 | N 5.26 | P 4.62 | Q 4.57 | R 5.22 | S 5.49 | T 4.91 | V 4.76 | W 3.02 | Y 4.87
A23: C 4.86 | D 5.3 | E 4.82 | F 4.1 | G 5.71 | H 4.87 | I 4.82 | K 5.1 | L 5.02 | M 4.83 | N 5.26 | P 5.29 | Q 5.27 | R 5.04 | S 5.2 | T 4.87 | V 5.07 | W 4.32 | Y 4.3
P24: A 5.57 | C 5.04 | D 5.57 | E 5.61 | F 4.42 | G 5.37 | H 5.41 | I 4.58 | K 4.92 | L 4.94 | M 4.55 | N 5.34 | Q 5.23 | R 5.08 | S 4.84 | T 5.36 | V 5.11 | W 4 | Y 4.41

Variants of: B2
Experiment: as above
Conditions: c terminus: a fixed tail appended

Protein stability index of substitutions, site by site:
S1: A 3.87 | C 3.82 | D 3.9 | E 4.49 | F 3.6 | G 3.96 | H 4.21 | I 3.56 | K 4.12 | L 3.69 | M 4.26 | N 4.32 | P 3.98 | Q 4.22 | R 3.8 | T 4.1 | V 3.84 | W 3.08 | Y 3.18
S2: A 4.54 | C 2.83 | D 4.55 | E 4.43 | F 3.57 | G 4.25 | H 3.99 | I 3.88 | K 3.97 | L 3.79 | M 4.13 | N 4.16 | P 4.45 | Q 4.25 | R 4.07 | T 3.86 | V 3.5 | W 3.26 | Y 3.56
K3: A 4.67 | C 3.86 | D 4.5

From the supplement of paper PMC10567573
